This is an account of results in paper PMC5303546 (Biochemical Pharmacology, 2017).

In one test the test system is PTH2R (V146 M). Nature of the test: LANCE cAMP screen, mutant PTH2. In kind it is cell-based, human. To be noted: 1 μM PTH(1–34), 10,000 cells/well, 30 min.
The next test has as its system PTH2R (V296S). Briefly: LANCE cAMP screen, mutant PTH2. The note with it: 1 μM PTH(1–34), 10,000 cells/well, 30 min.
The next test relates to PTH1. Nature of the test: LANCE cAMP screen, wild type PTH1. The note with it: 1 μM PTH(1–34); HEK-293 stable cells, 10,000 cells/well, 30 min stimulation. Type of test: cell-based, human.
Another test has as its system PTH2R (V241T). Nature of the test: LANCE cAMP screen, mutant PTH2. To be noted: 1 μM PTH(1–34), 10,000 cells/well, 30 min.
For the next test, the system named is PTH2R (T192V). Nature of the test: LANCE cAMP screen, mutant PTH2. The note with it: 1 μM PTH(1–34), 10,000 cells/well, 30 min.
The test system of the next test is PTH2R (L399M). Briefly: LANCE cAMP screen, mutant PTH2. To be noted: 1 μM PTH(1–34), 10,000 cells/well, 30 min.
The next test relates to PTH2R (G327V). Nature of the test: LANCE cAMP screen, mutant PTH2. The note with it: 1 μM PTH(1–34), 10,000 cells/well, 30 min.
The subject of a further test is PTH2R (A320V). Briefly: LANCE cAMP screen, mutant PTH2. To be noted: 1 μM PTH(1–34), 10,000 cells/well, 30 min.
In the next test the test system is PTH2R (V380 M). Briefly: LANCE cAMP screen, mutant PTH2. In kind it is cell-based, human. To be noted: 1 μM PTH(1–34), 10,000 cells/well, 30 min.
For another test, the system named is PTH2R (Y318I). Nature of the test: LANCE cAMP screen, mutant PTH2. The note with it: 1 μM PTH(1–34), 10,000 cells/well, 30 min.
The next test concerns PTH2R (C381A). Briefly: LANCE cAMP screen, mutant PTH2. The note with it: 1 μM PTH(1–34), 10,000 cells/well, 30 min.
Another test concerns PTH2R (M242F). Briefly: LANCE cAMP screen, mutant PTH2. The note with it: 1 μM PTH(1–34), 10,000 cells/well, 30 min.
In another test the test system is PTH2R (C397Y). Briefly: LANCE cAMP screen, mutant PTH2. To be noted: 1 μM PTH(1–34), 10,000 cells/well, 30 min.
The subject of a further test is PTH2R (I244L). Nature of the test: LANCE cAMP screen, mutant PTH2. The note with it: 1 μM PTH(1–34), 10,000 cells/well, 30 min.
For the next test, the system named is PTH2R (A295V). Nature of the test: LANCE cAMP screen, mutant PTH2. The note with it: 1 μM PTH(1–34), 10,000 cells/well, 30 min.
The test system of another test is PTH2R (A293V). Briefly: LANCE cAMP screen, mutant PTH2. To be noted: 1 μM PTH(1–34), 10,000 cells/well, 30 min.
The next test has as its system PTH2R (L382T). Briefly: LANCE cAMP screen, mutant PTH2. To be noted: 1 μM PTH(1–34), 10,000 cells/well, 30 min.
For a further test, the system named is PTH2R (A297V). Briefly: LANCE cAMP screen, mutant PTH2. To be noted: 1 μM PTH(1–34), 10,000 cells/well, 30 min.
For test [1], the target named is PTH2 receptor mutant Tyr-318-Ile (human) (UniProt P49190).
For test [2], the target named is parathyroid hormone 2 receptor (PTH2), wild type, human (human) (UniProt P49190).
Test [3] concerns the target PTH2 receptor mutant Tyr-318-Phe (human) (UniProt P49190).
Test [4] concerns the target PTH2 receptor mutant Tyr-318-Ile (human) (UniProt P49190). Nature of the test: radioligand binding; whole-cell competition: HEK-293 cells expressing the receptor in poly-D-lysine coated 24-well plates; 50 pM ^125I-rPTH(1–34); unlabelled ligand 10 μM–10 pM; room temperature, 2 h; Whole Cell Binding Buffer pH 7.7 with 5% horse serum and 0.5% foetal calf serum; IC50 from a single site model with the Hill co-efficient constrained to 1.

In test [5] the target is parathyroid hormone 2 receptor (PTH2), wild type, human (human) (UniProt P49190). Described as above.
Test [6] addresses PTH2 receptor mutant Tyr-318-Phe (human) (UniProt P49190). The test is described as above.
In another test the test system is PTH2. To be noted: cited from earlier work. The source says:
Despite the success of the chimeric and single residue-swap studies of PTH1 and PTH2 described above, [14], [15], [20], which identified PTH/PTHrP binding and selectivity determinants at PTH1 and PTH2, the nature of the TIP39 selection has not been explored to the same degree.

Chain of parathyroid hormone 2 receptor (PTH2), wild type, human (human) (P49190 25-550): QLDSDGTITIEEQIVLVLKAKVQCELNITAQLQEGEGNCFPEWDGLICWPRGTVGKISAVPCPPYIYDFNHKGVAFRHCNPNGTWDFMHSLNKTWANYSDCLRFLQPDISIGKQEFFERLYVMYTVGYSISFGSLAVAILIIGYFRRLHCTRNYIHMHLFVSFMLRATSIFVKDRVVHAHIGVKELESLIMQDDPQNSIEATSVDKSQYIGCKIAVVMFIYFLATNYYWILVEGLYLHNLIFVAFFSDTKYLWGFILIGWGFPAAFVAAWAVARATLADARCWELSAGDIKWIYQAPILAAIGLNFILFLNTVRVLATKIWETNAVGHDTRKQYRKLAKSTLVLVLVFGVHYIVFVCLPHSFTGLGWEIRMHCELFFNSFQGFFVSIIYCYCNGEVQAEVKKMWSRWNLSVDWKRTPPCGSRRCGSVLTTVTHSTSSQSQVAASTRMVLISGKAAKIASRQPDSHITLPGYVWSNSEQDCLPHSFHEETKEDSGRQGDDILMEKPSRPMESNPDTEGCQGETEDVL
Chain of PTH2 receptor mutant Tyr-318-Ile (human) (P49190 25-550 Y318I): as the sequence (P49190 25-550) above, with Y294I counted along it
Chain of PTH2 receptor mutant Tyr-318-Phe (human) (P49190 25-550 Y318F): as the sequence (P49190 25-550) above, with Y294F counted along it

As for `CC[C@H](C)[C@H](NC(=O)[C@H](CCC(=O)O)NC(=O)[C@H](CO)NC(=O)[C@@H](NC(=O)[C@@H](N)CO)C(C)C)C(=O)N[C@@H](CCC(N)=O)C(=O)N[C@@H](CC(C)C)C(=O)N[C@@H](CCSC)C(=O)N[C@@H](Cc1c[nH]cn1)C(=O)N[C@@H](CC(N)=O)C(=O)N[C@@H](CC(C)C)C(=O)NCC(=O)N[C@@H](CCCCN)C(=O)N[C@@H](Cc1c[nH]cn1)C(=O)N[C@@H](CC(C)C)C(=O)N[C@@H](CC(N)=O)C(=O)N[C@@H](CO)C(=O)N[C@@H](CCSC)C(=O)N[C@@H](CCC(=O)O)C(=O)N[C@@H](CCCNC(=N)N)C(=O)N[C@H](C(=O)N[C@@H](CCC(=O)O)C(=O)N[C@@H](Cc1c[nH]c2ccccc12)C(=O)N[C@@H](CC(C)C)C(=O)N[C@@H](CCCNC(=N)N)C(=O)N[C@@H](CCCCN)C(=O)N[C@@H](CCCCN)C(=O)N[C@@H](CC(C)C)C(=O)N[C@@H](CCC(N)=O)C(=O)N[C@@H](CC(=O)O)C(=O)N[C@H](C(=O)N[C@@H](Cc1c[nH]cn1)C(=O)N[C@@H](CC(N)=O)C(=O)N[C@@H](Cc1ccccc1)C(=O)O)C(C)C)C(C)C` [PTH(1–34)], the “% maximum PTH(1–34) response” value with PTH2R (V146 M) was 102 ± 1%; with PTH2R (V296S), 101 ± 2%; in the test on PTH1, 99 ± 2%; with PTH2R (V241T) it was 100 ± 1%; in the test with PTH2R (T192V), 102 ± 2%; in the test with PTH2R (L399M) it was 101 ± 1%. Besides, the “% maximum PTH(1–34) response” value came out at 100 ± 2% in the test on PTH2R (G327V); 100 ± 1% with PTH2R (A320V); 102 ± 1% with PTH2R (V380 M); 99 ± 1% in the test with PTH2R (Y318I); 100 ± 2% in the test with PTH2R (C381A); 98 ± 2% in the test with PTH2R (M242F). The “% maximum PTH(1–34) response” value was found to be 100 ± 2% with PTH2R (C397Y); 100 ± 3% in the test with PTH2R (I244L); 99 ± 2% in the test with PTH2R (A295V); 99 ± 2% in the test with PTH2R (A293V); 102 ± 2% in the test on PTH2R (L382T); 100 ± 2% in the test with PTH2R (A297V).

In the case of TIP (2–39) (peptide), the cAMP accumulation (LANCE), EC50; 2500 cells/well, 10 min in test [1] turned out to be 41.7 nM; in test [2] it was 0.12 nM; in [3], 4.79 nM. Also, the cAMP accumulation (LANCE), pEC50; 2500 cells/well, 10 min turned out to be 7.38 in test [1], 9.92 in test [2] and 8.32 in test [3]. Also, the IC50 in [4] was 1480 nM; in test [5], 58.9 nM; in test [6], 417 nM. The pIC50 in [4] came to 5.83; in [5], 7.23; in [6], 6.38.

In the case of TIP (3–39) (peptide), the cAMP accumulation (LANCE), EC50; 2500 cells/well, 10 min in test [1] came to 50.1 nM; in test [2], 0.22 nM; in test [3] it was 9.55 nM. In addition, the cAMP accumulation (LANCE), pEC50; 2500 cells/well, 10 min in [1] came out at 7.3; in test [2] it was 9.66; in test [3], 8.02. For the same compound, the IC50 is 1260 nM in test [4], 105 nM in test [5] and 479 nM in test [6]. Also, the pIC50 in [4] worked out at 5.9; in [5], 6.98; in test [6] it was 6.32.

As for TIP (4–39) (peptide), the values for the cAMP accumulation (LANCE), EC50; 2500 cells/well, 10 min in [1], in test [2] and in test [3] were 89.1 nM, 0.29 nM and 13.2 nM, respectively. For the same compound, the values for the cAMP accumulation (LANCE), pEC50; 2500 cells/well, 10 min in test [1], in [2] and in [3] were 7.05, 9.54 and 7.88, respectively. Also, the IC50 turned out to be 1480 nM in test [4], 158 nM in test [5] and 603 nM in test [6]. Besides, the pIC50 in [4] turned out to be 5.83; in [5] it was 6.8; in test [6] it was 6.22.

For the compound TIP (5–39) (peptide), the cAMP accumulation (LANCE), EC50; 2500 cells/well, 10 min in test [1] is above 1000 nM; in [2], 17 nM; in test [3], 912 nM. For the same compound, the cAMP accumulation (LANCE), pEC50; 2500 cells/well, 10 min was below 6 in [1], 7.77 in [2] and 6.04 in test [3]. Moreover, the IC50 in test [4] is 7240 nM; in [5] it was 871 nM; in [6], 3240 nM. The pIC50 was determined as 5.14 in test [4], 6.06 in [5] and 5.49 in [6].

With TIP (6–39) (peptide), the cAMP accumulation (LANCE), EC50; 2500 cells/well, 10 min was 123 nM in test [2] and above 1000 nM in test [3]. Besides, the values for the cAMP accumulation (LANCE), pEC50; 2500 cells/well, 10 min in [2] and in [3] were 6.91 and below 6, respectively. The IC50 in test [4] was determined as 8710 nM; in test [5] it was 1050 nM; in [6] it was 4270 nM. Moreover, the values for the negative-log IC50 (pIC50) in test [4], in test [5] and in [6] were 5.06, 5.98 and 5.37, respectively.

“TIP (7–39): TIP39 truncated by the first 6 residues, literature peptide (ref 21) (DAAFRERARLLAALERRHWLNSYMHKLLVLDAP; Tuberoinfundibular peptide of 39 residues; UniProt Q96A98 68-100, looked up, fragment)”: the “efficacy at PTH2” value in the test with PTH2 was “no efficacy”.
